Entries after “also recorded” stand apart in the source; their conditions may differ.
Legend:
RGCs [1] = assay: axon outgrowth in primary adult retinal cultures; format: cell-based, rat
Experimental: Protein A beads (Sigma) were incubated with either rabbit anti-OM antiserum (Swant) or normal rabbit serum (Invitrogen) for 16 h at 4° C. After extensive rinsing, beads with adsorbed IgGs were mixed with MCM (1 ml 10× concentrate, collected 8 h after zymosan treatment) for 24 h at 4° C. and then pelleted down by centrifugation. We tested 5 μl of the supernatants or untreated MCM for oncomodulin by western blotting. Bioactivity of immune-depleted and control MCM was tested in dissociated RGC cultures as described below at a 1:4 dilution, a concentration found to give a near-maximal response.
(§1) Adult rat retinal cultures were prepared as described^21. […] One week later, retinas were dissected, dissociated, and the cells plated in defined, serum-free medium. Axon growth (% RGCs extending axons ≧30 μm, ≧70 μm or ≧140 μm in length) was evaluated after 3 d in quadruplicate samples in a blinded fashion. All experiments were repeated at least three separate times. In some instances, cells were immunostained with GAP-43 antibody (1:500, Chemicon).

RGCs [2] = assay: ligand binding assay with AP-oncomodulin fusion proteins on immunopurified RGCs; parameters: species or system rat
Experimental: Adult rat retinal cells were dissociated as above and then isolated by immunopanning^31,46 using antibody MAC1 followed by an antibody to Thy1 (Chemicon). Purity was ˜98% based upon counting Fluorogold-labeled versus total cells. RGCs, treated with or without forskolin, were lightly fixed after 14-16 h in culture (4% paraformaldehyde (PFA), 6 min) before binding assays.
Binding assays were carried out as described^48 with slight modifications. Briefly, lightly fixed, immunopurified RGCs were incubated with AP-OM or AP (37° C., 24 h).
After extensive rinsing, cells were fixed again, heated (65° C., 90 min) to destroy endogenous AP and incubated with nitro blue tetrazolium chloride/5-bromo-4-chloro-3-indoyl phosphate toluidine salt (BCIPINBT). In some instances, AP-OM or AP (control), with or without forskolin, was added to the cultures before the initial fixation. Absorbance was measured with Image J software (US National Institutes of Health) and corrected by subtracting the level of AP binding. Binding curves and Scatchard plots were generated using Prism software. For displacement studies, varying concentrations of unlabeled oncomodulin were added to cultures after the equilibrium binding of 40 mM AP-OM at 37° C. for 24 h.

DRG neurons [3] = assay: neurite outgrowth of naive DRG neurons in culture; format: cell-based, rat; conditions: 3 d culture
Experimental: (§2) L4-L5 DRGs from adult male Sprague-Dawley rats (250-300 g) were injected with 5 μl of saline or oncomodulin (200 ng μl^−1). After 7 d, injected ganglia were dissected and single-cell suspensions were prepared as described^50. Cells were cultured on laminin (Sigma) with or without CSPGs (Chemicon) for 20 h or 40 h. In some cases, chondroitinase ABC (0.5 U ml^−1, Seikagaku) was added. Neurite outgrowth was visualized by Tuj1 antibody to class III β-tubulin (1:5,000, Babco) and quantified in quadruplicate samples by a blinded observer. In other studies, L4-L5 DRG neurons were cultured in the presence of absence of oncomodulin, mannose and/or forskolin in RPMI-1640 to limit spontaneous outgrowth. Cells were fixed and immunostained after 3 d and evaluated for outgrowth.

DRG neurons [4] = assay: neurite outgrowth of DRG neurons cultured after intraganglionic injection in vivo; format: cell-based, rat
Experimental: as §2

P-CREB = P-CREB immunostaining in RGCs after intravitreous injection; format: in vivo, rat; conditions: 2 h after intravitreous injection, 1 μg μl^−1, 5 μl
Experimental: To investigate the immediate effects of oncomodulin in vivo, rats received an intravitreous injection of the protein (1 μg μl^−1, 5 μl volume, n=6) and were killed 2 h later. Retinal sections were immunostained to detect the phosphorylated form of the transcriptional activator CREB (antibody to P-CREB, 1:100, Cell Signaling Technology). Fluorescent photomicrographs were taken 2 mm from the optic nerve head.

optic nerve = optic nerve regeneration in vivo after nerve crush, intraocular PLGA microspheres; parameters: species or system rat; conditions: 2 weeks, agent by itself
Experimental: Microspheres were prepared from lyophilized oncomodulin or sp-8-Br-cAMPs (Sigma) with PLGA using the solvent evaporation method of single emulsion^49. To measure the rate of protein release in vitro, 10 mg of oncomodulin-containing beads were incubated in phosphate-buffered saline (PBS; 37° C.). Supernatants were collected every 3 d and analyzed on western blots.
Optic nerve surgery was carried out on male Fisher rats (200-250 g) as described^18. Three days after nerve crush, rats received intraocular injections of blank microspheres or microspheres containing oncomodulin, sp-8-Br-cAMPs or both, in 10 μl saline after the same fluid volume was withdrawn from the eye (n=8-12 per group). Rats were killed 2 weeks later and their retinas, with optic nerves attached, were prepared as described^18,21. Axon growth was evaluated by GAP-43 immunostaining in the optic nerve at distances of 500 μm and 1 mm from the injury site^18,21. The length of the longest axon was measured in each case and averaged across all cases within each group.

RGCs [5] = assay: RGC survival in primary retinal cultures; format: cell-based, rat; conditions: retinal culture
Experimental: as §1

[6] = in the absence of forskolin and mannose
[7] = in the presence of forskolin and mannose, 3 d, BDNF 50 ng ml^−1, CNTF 10 ng ml^−1, GDNF 50 ng ml^−1

B1: BDNF: brain-derived neurotrophic factor (protein, UniProt P23560 19-247, looked up)
Neurotrophic factor BDNF …: APMKEANIRGQGGLAYPGVRTHGTLESVNGPKAGSRGLTSLADTFEHVIEELLDEDQKVRPNEENNKDADLYTSRVMLSSQVPLEPPLLFLLEEYKNYLDAANMSMRVRRHSDPARRGELSVCDSISEWVTAADKKTAVDMSGGTVTVLEKVPVSKGQLKQYFYETKCNPMGYTKEGCRGIDKRHWNSQCRTTQSYVRALTMDSKKRIGWRFIRIDTSCVCTLTIKRGR
axon outgrowth from RGCs in culture (RGCs [1]; [6]): Neither oncomodulin nor any of the other factors stimulated outgrowth
axon outgrowth from RGCs in culture (RGCs [1]; [7]): ineffective

B2: AP-OM: alkaline phosphatase (AP)-oncomodulin fusion protein (protein)
chain: MSITDILSAEDIAAALQECQDPDTFEPQKFFQTSGLSKMSASQVKDIFRFIDNDQSGYLDGDELKYFLQKFQSDARELTESETKSLMDAADNDGDGKIGADEFQEMVHS
modifications: left off: large carriers; small tags and cut ends
notes: alkaline phosphatase (AP)-oncomodulin fusion protein
binding to RGCs (RGCs [2]; [cAMP]i elevated with forskolin): bound strongly
binding to RGCs (RGCs [2]; basal conditions (no forskolin)): Neither AP-OM nor AP showed appreciable binding
binding to RGCs (RGCs [2]; untreated RGCs permeabilized after light fixation, no forskolin): bound even without previous forskolin treatment

B3: CNTF: ciliary neurotrophic factor (protein, UniProt P26441 1-200, looked up)
Ciliary neurotrophic factor: MAFTEHSPLTPHRRDLCSRSIWLARKIRSDLTALTESYVKHQGLNKNINLDSADGMPVASTDQWSELTEAERLQENLQAYRTFHVLLARLLEDQQVHFTPTEGDFHQAIHTLLLQVAAFAYQIEELMILLEYKIPRNEADGMPINVGDGGLFEKKLWGLKVLQELSQWTVRSIHDLRFISSHQTGIPARGSHYIANNKKM
axon outgrowth from RGCs in culture (RGCs [1]; [6]): Neither oncomodulin nor any of the other factors stimulated outgrowth
axon outgrowth from RGCs in culture (RGCs [1]; [7]): increased axon growth

B4: oncomodulin: 11.7-kDa Ca2+-binding protein secreted by macrophages; recombinant rat oncomodulin expressed in Escherichia coli (protein)
chain: SITDILSAEDIAAALQECQDPDTFEPQKFFQTSGLSKMSASQVKDIFRFIDNDQSGYLDGDELKYFLQKFQSDARELTESETKSLMDAADNDGDGKIGADEFQEMVHS
outgrowth of previously untreated DRG neurons (DRG neurons [3]): acts on previously untreated DRG neurons
DRG neurite outgrowth on nonpermissive substrate (DRG neurons [4]; CSPG substrate): promoted some outgrowth; also recorded: stimulated some outgrowth
DRG neurite outgrowth on permissive substrate (DRG neurons [4]; exposed in vivo 1 week, poly-D-lysine+laminin, vs vehicle): considerably greater outgrowth
level of P-CREB in RGCs (P-CREB): markedly increased
axon regeneration in optic nerve (optic nerve): had no effect
concentration at which binding saturated (RGCs [2]; AP-OM binding to RGCs): greater than 100 nM
Kd (RGCs [2]; AP-OM, forskolin-treated RGCs, Scatchard plot, read-out: dissociation constant (Kd), binding to RGCs): 28 ± 5 nM
IC50 (RGCs [2]; displacement of AP-OM by unlabeled oncomodulin, read-out: IC50, reversibility of binding to RGCs): ~30 nM
displacement of AP-OM from RGCs (RGCs [2]; excess unlabeled competitor (100-fold)): displaced AP-OM from RGCs
RGC survival (RGCs [5]): Neither oncomodulin nor any other factor enhanced RGC survival above baseline
EC50 (RGCs [1]; RGCs, forskolin and mannose present, read-out: effective concentration for half-maximum response (EC50), axon outgrowth): ~3.8 nM
axon outgrowth from RGCs in culture (RGCs [1]; [6]): Neither oncomodulin nor any of the other factors stimulated outgrowth
axon outgrowth from RGCs in culture (RGCs [1]; [7]): nearly doubled the amount of outgrowth

Reference: patent US20090156496A1, “METHODS AND COMPOSITIONS FOR TREATING AND PREVENTING PERIPHERAL NERVE DAMAGE” (CHILDREN'S MEDICAL CENTER CORPORATION, INC., priority 2006, published 2009)
